Reference: publication PMC8573869

T1: endogenous family with sequence similarity 134 member B (FAM134B), Q9H6L5
T1 chain: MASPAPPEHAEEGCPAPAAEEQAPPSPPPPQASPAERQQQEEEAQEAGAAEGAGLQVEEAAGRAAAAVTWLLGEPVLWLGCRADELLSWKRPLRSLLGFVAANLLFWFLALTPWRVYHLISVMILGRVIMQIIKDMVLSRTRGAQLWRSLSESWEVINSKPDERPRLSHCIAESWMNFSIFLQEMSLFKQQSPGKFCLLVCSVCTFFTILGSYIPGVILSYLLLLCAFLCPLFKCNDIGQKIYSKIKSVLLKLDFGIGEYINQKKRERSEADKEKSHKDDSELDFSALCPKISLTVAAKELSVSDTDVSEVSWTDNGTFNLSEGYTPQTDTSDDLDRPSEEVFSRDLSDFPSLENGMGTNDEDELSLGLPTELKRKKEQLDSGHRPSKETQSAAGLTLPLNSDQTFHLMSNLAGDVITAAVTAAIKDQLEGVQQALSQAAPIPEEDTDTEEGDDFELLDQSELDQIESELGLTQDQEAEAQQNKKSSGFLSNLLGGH

T2: endogenous long reticulon-3 (RTN3L), O95197
T2 chain: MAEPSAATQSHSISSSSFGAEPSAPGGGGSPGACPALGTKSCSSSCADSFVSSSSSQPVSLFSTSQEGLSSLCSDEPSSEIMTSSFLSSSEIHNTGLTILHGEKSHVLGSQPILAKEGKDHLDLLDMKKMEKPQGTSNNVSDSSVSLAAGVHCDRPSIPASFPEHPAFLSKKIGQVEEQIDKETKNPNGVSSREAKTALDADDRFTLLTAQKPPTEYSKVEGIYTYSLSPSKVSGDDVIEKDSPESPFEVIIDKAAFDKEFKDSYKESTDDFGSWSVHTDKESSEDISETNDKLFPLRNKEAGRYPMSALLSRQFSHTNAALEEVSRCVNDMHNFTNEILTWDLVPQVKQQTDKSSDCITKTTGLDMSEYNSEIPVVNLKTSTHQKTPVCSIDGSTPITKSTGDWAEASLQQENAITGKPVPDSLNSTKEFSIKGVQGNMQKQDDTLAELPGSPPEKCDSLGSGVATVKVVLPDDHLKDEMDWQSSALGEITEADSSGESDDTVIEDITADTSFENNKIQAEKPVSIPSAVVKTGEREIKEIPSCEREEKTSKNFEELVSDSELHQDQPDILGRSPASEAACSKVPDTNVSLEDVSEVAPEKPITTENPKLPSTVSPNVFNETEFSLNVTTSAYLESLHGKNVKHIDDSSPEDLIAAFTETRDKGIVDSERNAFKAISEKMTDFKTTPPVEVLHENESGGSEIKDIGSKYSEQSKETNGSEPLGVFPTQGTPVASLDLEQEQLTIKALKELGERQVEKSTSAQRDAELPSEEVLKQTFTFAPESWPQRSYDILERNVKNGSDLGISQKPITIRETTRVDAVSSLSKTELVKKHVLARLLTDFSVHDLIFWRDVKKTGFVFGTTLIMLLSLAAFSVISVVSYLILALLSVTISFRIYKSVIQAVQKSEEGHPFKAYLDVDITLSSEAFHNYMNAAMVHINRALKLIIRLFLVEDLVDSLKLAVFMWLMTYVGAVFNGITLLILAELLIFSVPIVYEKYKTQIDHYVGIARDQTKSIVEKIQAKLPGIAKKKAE


What was measured:
[1] = target: T1, endogenous family with sequence …; assay: co-immunoprecipitation (anti-FLAG IP, densitometry); conditions: chain shown with the change; MCF7 cells transfected for 48 h, crosslinking; n = 3; parent: est. 1.0; read off a plot
[2] = target: T2, endogenous long reticulon-3 (RTN3L), …; assay: as above; conditions: chain shown with the change; MCF7 cells transfected for 48 h, crosslinking; n = 3; parent: est. 1.0; read off a plot

ratio to parent [1]	ratio to parent [2]	Binder
0.75	1.3	FLAG-tagged wild-type Rab32, Q13637 T39N (protein) MAGGGAGDPGLGAAAAPAPETREHLFKVLVIGELGVGKNSIIKRYVHQLFSQHYRATIGVDFALKVLNWDSRTLVRLQLWDIAGQERFGNMTRVYYKEAVGAFVVFDISRSSTFEAVLKWKSDLDSKVHLPNGSPIPAVLLANKCDQNKDSSQSPSQVDQFCKEHGFAGWFETSAKDNINIEEAARFLVEKILVNHQSFPNEENDVDKIKLDQETLRAENKSQCC
0.95	3.4	FLAG-tagged wild-type Rab32, Q13637 Q85L (protein) MAGGGAGDPGLGAAAAPAPETREHLFKVLVIGELGVGKTSIIKRYVHQLFSQHYRATIGVDFALKVLNWDSRTLVRLQLWDIAGLERFGNMTRVYYKEAVGAFVVFDISRSSTFEAVLKWKSDLDSKVHLPNGSPIPAVLLANKCDQNKDSSQSPSQVDQFCKEHGFAGWFETSAKDNINIEEAARFLVEKILVNHQSFPNEENDVDKIKLDQETLRAENKSQCC
